Reference: patent publication US5580712

Biological target: FLAG epitope Trypsin site N-terminally tagged 9 repeat GG biopolymer (SEQ ID NO:20)

Substance: Trypsin (type XI DPCC treated) (enzyme)
- completeness of proteolytic cleavage, from relative mobility on SDS gels: 100%
